In this assay the target is BMP4/7 heterodimer (human) (UniProt P12644). The experiment in a line: cell-based or functional assay.
Sequence of BMP4/7 heterodimer (human) (P12644 293-408, chain 1 of 2): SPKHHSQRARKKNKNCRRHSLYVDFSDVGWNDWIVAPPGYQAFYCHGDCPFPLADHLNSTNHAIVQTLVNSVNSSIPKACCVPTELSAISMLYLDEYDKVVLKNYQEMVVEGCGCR
Sequence of BMP4/7 heterodimer (human) (P18075 293-431, chain 2 of 2, further chain): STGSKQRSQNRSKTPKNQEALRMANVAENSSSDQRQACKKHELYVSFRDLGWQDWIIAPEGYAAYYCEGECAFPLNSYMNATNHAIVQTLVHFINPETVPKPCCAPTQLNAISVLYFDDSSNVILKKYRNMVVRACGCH

For the substance “Gremlin 1 Full length (from UniProt O60565 25-184) (ligand)”, the IC50 (geometric mean, N=2), inhibition of BMP4/7 signalling, Hek-Id1 reporter gene assay turned out to be 1.6 nM.

For the origin of these results see patent publication US20230174635A1.
